From patent US20230121197A1, “ANTIBODIES SPECIFICALLY BINDING THE CARBOXYMETHYLATED CATALYTIC SUBUNIT OF PROTEIN PHOSPHATASE 2A” (Medizinische Universität Wien, priority 2020, published 2023)

T1: PP2Ac C-terminal peptide meL309, ac-HVTRRTPDYFL-CH3 (α-carboxymethylated) (human, SMILES …)
T1 construct: also called Y307-meL309; mePP2Ac
T1 peptide: Ac-HVTRRTPDYFL-OMe

B1: 7C10-C5: α-carboxymethylation specific mouse monoclonal IgG1 antibody from single clone hybridoma 7C10-C5 (DSM ACC3350) (antibody)
heavy: MYRMQLLSCIALSLALVTNSDVQLQESGPGLVKPSQSLSLTCSVTGYSITSGYYWNWIRQFPGNKLEWMGYISYDGSNNYNPSLKNRISITRDTSKNQFFLKLNSVTTEDTATYYCAGRFAYWGQGTLVTVSAAKTTAPSVYPLAPVCGDTTGSSVTLGCLVKGYFPEPVTLTWNSGSLSSGVHTFPAVLQSDLYTLSSSVTVTSSTWPSQSITCNVAHPASSTKVDKKIEPRGPTIKPCPPCKCPAPNLLGGPSVFIFPPKIKDVLMISLSPIVTCVVVDVSEDDPDVQISWFVNNVEVHTAQTQTHREDYNSTLRVVSALPIQHQDWMSGKEFKCKVNNKDLPAPIERTISKPKGSVRAPQVYVLPPPEEEMTKKQVTLTCMVTDFMPEDIYVEWTNNGKTELNYKNTEPVLDSDGSYFMYSKLRVEKKNWVERNSYSCSVVHEGLHNHHTTKSFSRTPGK
light: MDMRVPAQLLGLLLLWLSGARCDVLMTQTPLSLPVSLGDQASISCRSSQSIVHSNGNTYLEWYLQKPGQSPKLLIYKVSNRFSGVPDRFSGSGSGTDFTLKINRVEAEDLGVYYCFQGSHVPWTFGGGTKLEIKADAAPTVSIFPPSSEQLTSGGASVVCFLNNFYPKDINVKWKIDGSERQNGVLNSWTDQDSKDSTYSMSSTLTLTKDEYERHNSYTCEATHKTSTSPIVKSFNRNEC
modifications: Amino acid sequence of the recombinant 7C10-C5 heavy chain; Amino acid sequence of the recombinant 7C10-C5 light chain
B2: 7C10-C5 monoclonal antibody (antibody, V domains shown)
VH: DVQLQESGPGLVKPSQSLSLTCSVTGYSITSGYYWNWIRQFPGNKLEWMGYISYDGSNNYNPSLKNRISITRDTSKNQFFLKLNSVTTEDTATYYCAGRFAYWGQGTLVTVSA
VL: DVLMTQTPLSLPVSLGDQASISCRSSQSIVHSNGNTYLEWYLQKPGQSPKLLIYKVSNRFSGVPDRFSGSGSGTDFTLKINRVEAEDLGVYYCFQGSHVPWTFGGGTKLEIK
notes: Used as hybridoma culture supernatant (ELISA, Western blot, IHC) or at 50 µg/mL (SPR); also called 7C10 X63; clone 7C10-C5

Assays:
[1] = target: T2, PP4c peptides L307, meL307 (Homo sapiens, UniProt P60510); experiment: ELISA with PP4c C-terminal undecapeptides; type: binding
T2 construct: carboxymethylated versus non-methylated PP2Ac, PP4c and PP6c C-terminal undecapeptides
Procedure: To further characterize the carboxymethyl-PP2Ac specificity of monoclonal antibody 7C10-C5 ELISAs were performed on carboxymethylated versus non-methylated PP2Ac, PP4c and PP6c C-terminal undecapeptides.
Specifically, flat-bottom Nunc-Immuno Medisorp 96-well ELISA plates (Thermo; 467320) were coated o/n at 4° C. with 50 μl of either a peptide of the sequence ac-HVTRRTPDYFL-OH (L309) (SEQ ID NO:18) at a concentration of 2 μg/ml in TBS (137 mM NaCl (AppliChem, #131659, 2.7 mM KCl (AppliChem, #131494), 24.8 mM Tris (AppliChem, #A1086), pH 7.4 with HCl), a peptide of the sequence ac-HVTRRTPDYFL-CH3 (meL309) (SEQ ID NO:18) 2 μg/ml in TBS, with a peptide of the sequence (ac-PSKKPVADYFL (L307) (SEQ ID NO:20) at a concentration of 2 μg/ml in TBS or with a peptide of the sequence ac-PSKKPVADYFL-CH3 (meL307) (SEQ ID NO:20) at a concentration of 2 μg/ml in TBS, with a peptide of the sequence ac-IPPRTTTPYFL (L305) (SEQ ID NO:22) at a concentration of 2 μg/ml in TBS or with a peptide of the sequence ac-IPPRTTTPYFL-CH3 (meL305) (SEQ ID NO:22) at a concentration of 2 μg/ml in TBS. […] Bound antibodies were detected colorimetrically by addition of 50 μl of 33 μg/ml […] (TMB) (Sigma, T2885) in 0.1 M sodium acetate pH 6.0 and 0.01% H2O2 (Sigma, H1009). […] The results from 560 nm read were subtracted from the 450 nm read.

[2] = target: α-carboxymethylated PP2Ac (Homo sapiens, UniProt P67775); experiment: IHC specificity validation (NaOH treatment of slides); parameters: NaOH treatment to chemically remove the methyl group from the methylated PP2A-C; from tissue; host or cells: de-paraffinized tissue slides; settings: slides incubated in 200 mM NaOH
Procedure: Immunohistochemical staining was performed on the DAKO Autostainer (DAKO, Carpinteria, Calif.) using Envision+ or liquid streptavidin-biotin and diaminobenzadine (DAB) as the chromogen. De-paraffinized sections were labeled with mouse monoclonal antibody 7C10-C5 (1:200) overnight at 4 C. Microwave 10 mM Tris HCl, pH9 containing 1 mM EDTA epitope retrieval was used prior to staining. Appropriate negative (no primary antibody) and positive controls (pancreas) were stained in parallel with each set of slides studied. Peptide competition studies were performed using 2 peptides ([…]*) (SEQ ID NO:115) differing in the methylation status at position L (marked with a *); FIG. 13E: Peptides were incubated at ambient temperature for 60 mins at 10-1000× molar ratios before being applied to the slide. FIG. 13F: Before being stained, slides were incubated in freshly made 200 mM NaOH for 10 mins at 4° C. and then neutralized by several washes in TBST.
Stained slides were scanned using an APERIO AT2 (Leica) and the digital images imported into QuPath (Bankhead et al., 2017). TMA cores were analyzed for percentage of cells staining and intensity. In FIGS. 13E and F, higher visibility of the dark cell nuclei indicates weaker α-carboxymethylated PP2Ac staining.

[3] = target: T1, PP2Ac C-terminal peptide meL309, …; experiment: SPR, from KD 11 nM against >5000 nM
From the text: (A) Saturation curve of the titration of the α-carboxymethylated PP2Ac C-terminal peptide (SEQ ID NO:18) on 7C10-C5 or 2A10 immobilized on a Series S Sensor Chip CM5 (GE Healthcare, 10296958). […] (B) Saturation curve of the titration of the α-carboxymethylated PP4c C-terminal peptide (SEQ ID NO:20) on 7C10-C5 or 2A10 immobilized on a Series S Sensor Chip CM5 (GE Healthcare, 10296958). […] The KD values were obtained using the fitting tool of the BiacoreT200 Evaluation Software (version 3.1).
The differential affinity of anti-carboxymethylated PP2Ac antibodies, 7C10-C5 and 2A10, to carboxymethylated PP2A catalytic subunit versus noncarboxymethylated PP2A catalytic subunit was determined by surface plasmon resonance (SPR) on a Biacore T200 (GE Healthcare) at the Core Facility Biomolecular & Cellular Analysis (University of Natural Resources and Life Sciences Vienna BOKU). The affinity of 7C10-C5 for carboxymethylated and noncarboxymethylated catalytic subunit of PP4 (PP4c), a PP2A-related phosphatase, was also determined.

α-carboxymethylated PP2Ac, sequence (P67775 whole entry): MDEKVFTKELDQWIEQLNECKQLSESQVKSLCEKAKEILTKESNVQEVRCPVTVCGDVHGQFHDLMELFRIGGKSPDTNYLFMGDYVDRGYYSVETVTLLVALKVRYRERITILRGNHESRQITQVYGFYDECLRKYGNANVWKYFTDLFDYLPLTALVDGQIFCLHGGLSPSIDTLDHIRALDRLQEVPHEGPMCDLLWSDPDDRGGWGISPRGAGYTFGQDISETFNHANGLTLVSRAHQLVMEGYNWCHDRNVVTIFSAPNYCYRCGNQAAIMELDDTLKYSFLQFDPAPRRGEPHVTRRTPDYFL

Row | Molecule | carboxymethylated versus non-carboxymethylated PP4c peptide signal [1] | IHC staining after chemical removal of the methyl group [2] | fold stronger binding than to non-carboxymethylated PP2Ac [3] [fold]
1 | B1 | No significant difference | diminished staining upon treatment with NaOH | 
2 | B2 |  |  | ≥ 400
